Measurements reported in article PMC9054839 (2022).

B1: C-terminally ypet-tagged full-length talin WT [mouse] / paxillin (endogenous, fibroblasts) [mouse (endogenous in talin^1/2dko fibroblasts)] (parent complex)
chain 1: MVALSLKISIGNVVKTMQFEPSTMVYDACRMIRERIPEALAGPPNDFGLFLSDDDPKKGIWLEAGKALDYYMLRNGDTMEYRKKQRPLKIRMLDGTVKTIMVDDSKTVTDMLMTICARIGITNHDEYSLVRELMEEKKDEGTGTLRKDKTLLRDEKKMEKLKQKLHTDDELNWLDHGRTLREQGVEEHETLLLRRKFFYSDQNVDSRDPVQLNLLYVQARDDILNGSHPVSFDKACEFAGFQCQIQFGPHNEQKHKAGFLDLKDFLPKEYVKQKGERKIFQAHKNCGQMSEIEAKVRYVKLARSLKTYGVSFFLVKEKMKGKNKLVPRLLGITKECVMRVDEKTKEVIQEWSLTNIKRWAASPKSFTLDFGDYQDGYYSVQTTEGEQIAQLIAGYIDIILKKKKSKDHFGLEGDEESTMLEDSVSPKKSTVLQQQYNRVGKVEHGSVALPAIMRSGASGPENFQVGSMPPAQQQITSGQMHRGHMPPLTSAQQALTGTINSSMQAVQAAQATLDDFETLPPLGQDAASKAWRKNKMDESKHEIHSQVDAITAGTASVVNLTAGDPAETDYTAVGCAVTTISSNLTEMSRGVKLLAALLEDEGGNGRPLLQAAKGLAGAVSELLRSAQPASAEPRQNLLQAAGNVGQASGELLQQIGESDTDPHFQDVLMQLAKAVASAAAALVLKAKSVAQRTEDSGLQTQVIAAATQCALSTSQLVACTKVVAPTISSPVCQEQLVEAGRLVAKAVEGCVSASQAATEDGQLLRGVGAAATAVTQALNELLQHVKAHATGAGPAGRYDQATDTILTVTENIFSSMGDAGEMVRQARILAQATSDLVNAIKADAEGESDLENSRKLLSAAKILADATAKMVEAAKGAAAHPDSEEQQQRLREAAEGLRMATNAAAQNAIKKKLVQRLEHAAKQAAASATQTIAAAQHAASAPKASAGPQPLLVQSCKAVAEQIPLLVQGVRGSQAQPDSPSAQLALIAASQSFLQPGGKMVAAAKASVPTIQDQASAMQLSQCAKNLGTALAELRTAAQKAQEACGPLEMDSALSVVQNLEKDLQEIKAAARDGKLKPLPGETMEKCTQDLGNSTKAVSSAIAKLLGEIAQGNENYAGIAARDVAGGLRSLAQAARGVAALTSDPAVQAIVLDTASDVLDKASSLIEEAKKASGHPGDPESQQRLAQVAKAVTQALNRCVSCLPGQRDVDNALRAVGDASKRLLSDSLPPSTGTFQEAQSRLNEAAAGLNQAATELVQASRGTPQDLARASGRFGQDFSTFLEAGVEMAGQAPSQEDRAQVVSNLKGISMSSSKLLLAAKALSTDPASPNLKSQLAAAARAVTDSINQLITMCTQQAPGQKECDNALRQLETVRELLENPVQPINDMSYFGCLDSVMENSKVLGEAMTGISQNAKNGNLPEFGDAIATASKALCGFTEAAAQAAYLVGVSDPNSQAGQQGLVEPTQFARANQAIQMACQSLGEPGCTQAQVLSAATIVAKHTSALCNSCRLASARTANPTAKRQFVQSAKEVANSTANLVKTIKALDGDFTEENRAQCRAATAPLLEAVDNLSAFASNPEFSSVPAQISPEGRAAMEPIVISAKTMLESAGGLIQTARALAVNPRDPPRWSVLAGHSRTVSDSIKKLITSMRDKAPGQLECETAIAALNSCLRDLDQASLAAVSQQLAPREGISQEALHTQMLTAVQEISHLIEPLASAARAEASQLGHKVSQMAQYFEPLTLAAVGAASKTLSHPQQMALLDQTKTLAESALQLLYTAKEAGGNPKQAAHTQEALEEAVQMMTEAVEDLTTTLNEAASAAGVVGGMVDSITQAINQLDEGPMGDPEGSFVDYQTTMVRTAKAIAVTVQEMVTKSNTSPEELGPLANQLTSDYGRLASQAKPAAVAAENEEIGAHIKHRVQELGHGCSALVTKAGALQCSPSDVYTKKELIECARRVSEKVSHVLAALQAGNRGTQACITAASAVSGIIADLDTTIMFATAGTLNREGAETFADHREGILKTAKVLVEDTKVLVQNAAGSQEKLAQAAQSSVATITRLADVVKLGAASLGAEDPETQVVLINAVKDVAKALGDLISATKAAAGKVGDDPAVWQLKNSAKVMVTNVTSLLKTVKAVEDEATKGTRALEATTEHIRQELAVFCSPEPPAKTSTPEDFIRMTKGITMATAKAVAAGNSCRQEDVIATANLSRRAIADMLRACKEAAFHPEVAPDVRLRALHYGRECANGYLELLDHVLLTLQKPNPDLKQQLTGHSKRVAGSVTELIQAAEAMKGTEWVDPEDPTVIAENELLGAAAAIEAAAKKLEQLKPRAKPKEADESLNFEEQILEAAKSIAAATSALVKAASAAQRELVAQGKVGAIPANALDDGQWSQGLISAARMVAAATNNLCEAANAAVQGHASQEKLISSAKQVAASTAQLLVACKVKADQDSEAMKRLQAAGNAVKRASDNLVKAAQKAAAFEDQENETVVVKEKMVGGIAQIIAAQEEMLRKERELEEARKKLAQIRQQQYKFLPSELRDEH
chain 2: not shown

Variants of: B1
Experiment: anti-GFP immunoprecipitation, western blot quantification; talin1/2dKO fibroblasts, N = 3; parent: 1; read off a plot

| ratio to parent | Variant |
| --- | --- |
| ~0.69 | chain 1 T2126E, chain 1 K2133E |
| ~0.28 | chain 1 A680E, chain 1 K687E, chain 1 T2126E, chain 1 K2133E |
| ~0.44 | chain 1 A680E, chain 1 K687E |
